These results are taken from patent publication US20240052381A1, “BIOSYNTHESIS OF VANILLIN FROM ISOEUGENOL” (BASF SE, priority 2020, published 2024).

The data set is described as follows: In vitro enzyme assay: formation of vanillin with isoeugenol as the substrate. Conditions: purified recombinant protein; 10 mM isoeugenol, pH 7.0, 30° C., 10 min; negative control heat-denatured enzyme gave no vanillin. It counts as biochemical. On the procedure: The enzyme activity of the putative isoeugenol monooxygenase was assayed by measuring the formation of vanillin with isoeugenol as the substrate. The reaction mixture contained 10 mM isoeugenol, 100 mM potassium phosphate buffer (pH 7.0), 10% (v/v) ethanol and an appropriate amount of enzyme, in a total volume of 1 ml. The reaction was started, by adding isoeugenol as ethanol solution, carried out at 30° C. for 10 min with reciprocal shaking (160 strokes min^−1) and stopped with the addition of 1 ml of methanol. After centrifugation at […], the supernatant was analyzed by HPLC for the determination of isoeugenol and vanillin and vanillyl alcohol. VpIEM enzyme treated in boiling water for 5 minutes was used as the negative control.
HPLC analysis of isoeugenol and vanillin was carried out with a Vanquish Ultimate 3000 system. Intermediates were separated by reverse-phase chromatography on a Dionex Acclaim 120 C18 column (particle size 3 μm; 150 by 2.1 mm) with a gradient of 0.15% (volume/volume) acetic acid (eluant A) and methanol (eluant B) in a range of 60 to 100% (vol/vol) eluant B and at a flow rate of 0.4 ml/min. For quantification, all intermediates were calibrated with external standards. The compounds were identified by their retention times, as well as the corresponding spectra, which were identified with a diode array detector in the system.

B1: VpIEM: putative isoeugenol monooxygenase from Violaceomyces palustris, expressed in E. coli and purified (protein, listed as Violaceomyces paulstris)
chain: MAPAPTVQDAAPVAVAVPSKATNKGSFVHPTDILPSGWPTATDLSGGAQPRRFEGTIYDVMVRGTIPKELHGTFYRIMPDYAEAPTYYKGGELNAPIDGDGTVAAFRFKDGNVDYRQRFVETDRFKVERRARKSMYGLYRNPYTHHPCVRQTVDSTANTNVVMHAGRFLAMKENGNAYELDPHTLKTLGYNPFKLPSKTMTAHPKQDAVTGNLVGFGYEAKGLATKDVYYFEVDTQGNIVHDLWLEAPWCAFIHDCALTPNYLVLMLWPFEADIERMKAGGHHWAYDYDKPITWITIPRGAKSKDEVKYWYWKNGMPIHTAAGYEDEKGRIIIDSSLVHGNAFPFFPPDSEEQRKRQEADGTPIAQFVRWTIDPSKDPNERLPDPEVVLDTPSEFPQIDNRFMGKEYSSAFINVFMPDRSDTGKNVFQGLNGLCHYRRKEGTADFYYAGDNCLIQEPVFSPRSKDAPEGDGFVLAIVDRLDANRSEVVIIDTRDFTKAVAAVQLPFAIRSGIHGQWIQGNTIPDFDTRGLVDLPKEEHWAPPEASAYDPNM
modifications: (1)..(551) Amino Acid Sequence of VpIEM
In the case of B1, the “conversion of isoeugenol to vanillin (enzyme activity, HPLC)” value is listed as “able to catalyze the conversion of isoeugenol to vanillin”.
